Results as given in a protein production outcome set (Wang et al. 2014).

Assay: label from the status in PepcDB records

Row | Sequence | protein production
1 | MKLNIKISDKLKLFFKIAFVSVVILFIVREFTSVFKNFNSEYFFMYRNKLDFLNLLIIAALGIISYIPLSFYDFILKRKVGIRLKNRKLYKYSWIASSIASLLGFGGATSLAFKQYFYGDYVDDKKKLLKEIGKIVALNLTGLSIVCCTYMGIRISSWNNLGIIKYAIGIIALYAPGFIIYSAYKYSKTKDKLEFFSTLGIIFISFLEWLTTIILIYATLRITGASISVLTFLPIYIEAAVVGMISMIPGGIGTFDLTFMTGLEVLGIPIEQTLLVIILYRISYYIVPALIGVLLFVHDFGGKINKKFNGLPYEIVSKVAYKIVVSLVFISGAIIVLSNIAPQYLLKIKLLKEILGKQVLGLSIGMSVVLGFLIMLAALMLKYRAKSIYKASMVLFILGIILSLTKGINPYELVFLIIVAYLLYLSKRMFYRDSFVVSCKNTLIDSGILIASFSIYFFILITFGTHLKYVGIVRKMPYKMAYKFGFIAFALVTVIYVAIYFLNIRRKIPVKTFDQCSEYVEKIIEEYKGDSLTHLVFLKDKYIYLNEDKDLFIQYEVYGDKLFVLGNPVGNNENLFREIEKFCEYADNYGYTPVFYQVNDEMISYLHSNGYDFMKIGEEAKVDVKEFKVVGNKMKSLKTSRSKVTKEGYTFHMVEPPFSKEFLDSLREISDEWLDGRKEKGFSVGFFDEDYLNKAPIAILKDREGEIKAFANIMYMYDNESFSVDLMRFSKNTPRGVMDFMFINLIEYGKENGYEIFNMGMAPLANVGLSKYAFWNEKLALQFYENGQALYSFKGLRRFKEKFSHNWEYKYIAYRRNTSILITVIQAAIVCSRNRNVDESIVVRNLKSLIK | failed
2 | MNESSTHDSVADDPTEVSTDTVLDIALSLFSELGFSDAKLEAIAKKSGMSKRMIHYHFGDKRGLYICCLEEAVRRLRPTAEEMYLASAVPVEGVRTIVEAVFHRYVQHPEAVRMLQMENLHHYGKVAEASPLSDQSAITLQLDRLLMLGQDAGAFRPGISAQDVFTLIASIAVFRINSRSTTLNLYGIDMMNGDNTDGMRRMAVDTVLAFLTSNLKSADEDSYLSRPLLSTVTEHVDEEGSYEVAADPFS | not failed
3 | MNTHLKQLIEISHLDKEIDSLEPLIREKRKDLDKALNDKEAKNKAILNLEEEKLALKLQVSKNEQTLQDTNTKIASIQKKMSEIKSERELRSLNIEEDIAKERSNQANREIENLQNEIKHKSEKQEDLKKEMLELEKLVQQLESLVENEVKNIKETQQIIFKKKEELVEKTEPKIYSFYERIRRWAKNTSIVTIKKQACGGCFIRLNDKIYTEVLTSGDMITCPYCGRILYAEG | failed
4 | MSYSWKKILIKPESTVVDALRVIDNEALRIALVVNDEQQLLGVVTDGDIRRGLLNNLPLETPVVDIMSRSPITASVNTAKEQLVKLMESKSILAVPLMEENKVVGLETLHHLFEEKTYHNPVFIMAGGFGTRLRPLTDTCPKPMLKIGNKPILETVIRSFIKAGFVNFYISTHYMPEQIQNHFGDGSELGVKISYVHEDSPLGTGGALGLLPDDLPQDLPLIMMNGDVLTKVDFERLLDFHTENQADATMCVREYDYQIPYGVINGKGNKITSMVEKPIQRFFVNAGIYVVSPSVIQSVPKNHHIDMPTLLEQHMNERDNILMFPIHEYWLDIGRMDDFNRAQADIHTLGLDLEHHHHHH | failed
5 | EQITHWIVVQQDTTEQQRVQQAMRTQRDRLQRMQGVAQTGGWEYDPKSDSFTGSNEFYRLIGLPQSTNFDLERAFQLYPPSVRGRVKTAAQRCLEDGSPFDMEVPLVSATGQHREVRVRGSAEREEG | failed
6 | MALGFGMKMELQQFLDALASSPEKIEFETTMAVIEDNYDFTPAAFTNGNTQNDANENNGSCKIFAFGLLNALDKEATLACFGRFYREDVLLHPENNDHQNIRNFMVTGWEGIQFETSALTAK | not failed
7 | MTAKPTIAFSHLGCEKNRIDTEHMIGLLAEAGYGIDANEALADVVVVNTCSFIQAAREESVRTLVELAESGKKIVIAGCLAQHFQDQLLAELPEAIALVGTGDYHRIVDVLQRTESGERVNAISQEPSFIADENLPRYRTTTSAVAYLRVAEGCDYRCAFCIIPHLRGKQRSRSIESIVAEAKQLAAEGVQELVLISQITTNYGLDRYGKPMLAELLRQLGQVDVPWIRIHYAYPTGLTPEVIAAIRETHNVLPYLDLPLQHSHPEILKAMNRPWQGNVNDRIIEKLKEALPDAVLRTTFIAGFPGETEEHFRHLQQFIQRHEFDHVGVFAFSPEEGTAAIDLPNPVPDDVKEARRDALMATQQPIAERRNRAQIGRLVDVLIEQEHPSTGLKIGRSARFAPEVDGVVYVQGDAALGQLVTVRITDADIYDLHGEVASAADLFQASRQPSLA | failed
8 | MTQKEISIIHPRPSSIVAALYTLRDLNVDVAILHGPPGCSFKHARLLEEDGIHVVTTGLDENGFVFGGHDKLVQVINKSIELFNPKILGVVGTCASMIIGEEMHEAVLEANPDIPVIEVEVHAGYHNNTKGVIFALESALDAGIIDHKEFERQEYLLQKATEVEKKFGAASKEYLAPSRGDVKYKVAKRLVELLKEGKKGLVIMNAKKETGYMFADITLAVNEVAEALGKKENLVNMANIDPELGLPRVRQHAEYIMRDFKAHGVEIHEIIGGMDEYPVAGEKVSELIKEKYSDYDFAVITGVPHAVPMENIGHMELISITNGPRQVLPLKEMGHEHVMVEIDLHPKTLGVSQIVESEFGATLREVAKEA | failed
9 | MSSVPSAGQVRRRRVFYIPGYDPIHPRRYRELYRKESAEQARISGYSVTLKPKTTKGPYGWHVRSEQDGAEVAADVEVLVWSDIVRGSMSNTIPATYAQLARTAWTYIASGVLWRLMRLRKGPVIAALYPVGMLLAQLFAALFLVWLGWRLGGLTGWPLAALAGMGVGAGAGVYLLRWFRSKDGTFFAYYLMHDYAYSARWRGANPPELEARIGDFAERIAGALASDADEVLVVGHSSGAHVGVSVLADLIRAGRVPADGPALGFLTLGQVVPMVSFLPEAQRLRADLHYLCTRDELAWVDVSAPGDGCAFALCDPVSVSGVAPATGKRWPLVLSAAFTKTLSPARWAELRWRFFRLHFQYLCAFDQVGDYDYFRITAGPQTLAARYRDRAPSKSRIERAVSKYTDMGAS | failed
10 | MNTTPFPALSAETLLAVNTVGQWLAQNDFSGEQPYSSDCVVLAGNAVIPTIDAACRIAKAQGVPLLISGGIGHSTPFLYAVIARHPRYHTIRTSGRAEAAILADIANQFWHIPAEKIWLEDRSTNCGENARFSCALIRQAKENINTAIVVQDPTMQRRTIAAFRRVTNDDTDAPRWLSFPGFVPVLRHLNDGTRFANVEEGIWTVERYLSLIAGELPRLRDDETGYGPRGKDFIIHVDIPRDIENAWQVLQADTTLRSALGQRALRLEHHHHHH | not failed
11 | MGKTRAGRFALRGQRTALLHLETMTQAVDSADSVDPRALEALNRYFGYDSFRPGQSGIVSAILTGHDVLGVMPTGAGKSICYQIPAAILPGVAIVISPLISLMRDQVDALNDVGLPAAFINTTQTPDEQDLVFAQALSGQIKLLYVAPERLETERFRNFAVRVPISLVAVDEAHCVSQWGQDFRSSYLGIGEFIAGLPTRPTVAAFTATATERVRRDIVSILGLHTPSITVTGFDRPNLYFDVISMPRKDKASWVASYIASHPDESGIVYCATRKETEALAESLNSAVAELRAAGGADVSDIGTIAVAYHGGMSADAREKAQRDFVTDRVPVVVATNAFGMGIDKSNVRFVIHHNMPESIEAYYQEAGRAGRDGEPSRCTLLWNESDIVTRRRLLDSDYENERLTPEEQEAVRASKRRLLDAMVGYCRTTDCLHAYMTRYFGETAGAAAKTDGKCVGGCANCEHTFETIDVTDIARAISRCVHDVNQHVGSGKIVKVLRGSKAQDLSYLNPESLPSFGMLDEVPEARIRDVLSQMATDGFLTIAEGRLPIVGFGPRAAETVAPEFHYDIKKIKRADARARRTPDVSTPAVGSYVPDDGDEALFQKLRALRLDIARELGKPPYIVFSDKTLRDMVRVKPITDDQFLAVNGVGESKLKQYGERFLAAIREDSGDEA | failed
12 | MSLKLTPEAAGTFAIAPTPFHDDGKIDDVSIDRLTDFYAEVGCEGVTVLGILGEAPKLDAAEAEAVATRFIKRAKSMQVIVGVSAPGFAAMRRLARLSMDAGAAGVMIAPPPSLRTDEQITTYFRQATEAIGDDVPWVLQDYPLTLSVVMTPKVIRQIVMDSASCVMLKHEDWPGLEKITTLRGFQKDGSLRPLSILCGNGGLFLDFEMERGADGAMTGYCFPDMLVDVVKLSKAGQRDLAHNLFDAHLPLIRYEHQQGVGLSVRKYVLKKRGLLSSSAQRKPGASLTDTAREEVDYLLSRLARVEGHHHHHH | not failed
13 | HKPWRAEYAKSSRSSCKTCKSVINKENFRLGKLVQSTHFDGIMPMWNHASCILKKTKQIKSVDDVEGIESLRWEDQQKIRKYVESGAGSNTSTSTGTSTSS | not failed
14 | MAWHAAEDRSLGFKETYLMQRFGAGVVIDDFELVEKLPSGGMASLWRATNPRYDFPLVLKIPFLDPGADVSVILGFEAEELILKRLSGPHVPRFAASGSLAQVPYIAMEFVVGKGLADIVGNAPLPMDEVARIGIEIATALAALHRQKVVHLDLKPENVVLANRGAVLLDFGLARHEELPDFLGAESSVPMGTAAYISPEQVLGERSDPASDLFALGCILFQLATGEEPFGRPATLAGMKRRLYHAPRSPRDINDAIPRWLEAIILKCMEVDRSQRYIEAAHILSDLRSPDQVVVAKRKPRNEGGWAAITSLFRKTDDRSLVGRASSTRTQAGPSIVLAAVDLANGTDALAGEVLNETARVLASREDSWLACVTVLRTEIIGDTPATDETGRSVYLKRLVALKDWAYPLHLPEDRISYHVLEAVSPADAILTYAEHNDVGHIVVGARASSAIRRHLGSVSTKVVAQALCSVSVVRLKAVEEQQRRPL | failed
15 | MRLYTRTGDKGKTSVIGGRLAKDDTRVVAYGTTDELNSFVGLAITQLDENTFADIRGELFKIQHELFDCGGDLAMLKVKEDRPYKAKQEIVDFLEQRIDAYIKEAPELERFILPGGSEAAASLHVCRTIARRAERYVVRLQQEGEINPIVLKYLNRLSDYFFAVARVVNSRLQVPDVEYERSAIVFREGKRKEDKK | not failed
16 | MMFLSKTLTSLGQWPHSLPRISLMDRYVARQLIPPFLFSVGVVASLGLAIGNLSDLGNKIVEKNLPVAKAAEVLLLKVPEFLAYSLPVAVMLATMMTFGRLSGDCEIIAIRSCGVSLYRLILPAVVLSLLVTGWAFVLTEWVVPVANYRATSILIESIDEEHPFWQNRDVFYPEFEEIKLDNGQTARRLKSLVYAEKFDGKEMQNLTVLQWTENHLKHIVLSDNATWNNDNKRWDFFHGTVYRLTETEDYQEAVPFTNKQIALPQSAFDFARQGRDPYEMTIAEAQDYIKILKLIGDEKKTQFFQVRTEQKLAFPFVCIVFAVVGSAIGARPQRISRATGFGLTIVIIFAYYILGFFSGSLGIVGLISPTLAAWLPNFVGLGVGIWLLYEFNQG | failed
17 | MEAITYKYYQEKYYGNILNEEDFKRYEKKARRKLSSFTFGRIDCLQNVPDEVGDCICDMAEKISLEESKENFSGIVSESTDGHSVTFEKKQSIEQMNKELYLIAVGYLNNTGLLYGGVCLCSTARNW | failed
18 | MENFDEVIKEYQKYLEGKEKTHKINSCKHPCCEEDNLKSVKNYFKVYHKKYIPSIIQKKKKERNEHAPPLLKDIQDKRCTNVFERLNDKQFYTGVQKTKFMELLKNNKNKSSYCYNNIKVFSTMLKKPCNYVVTPGTLGIQKYGIQTGRPKTIFLFNNEKKYDKGVYFLVKSYIKNIKSLCYEITKILQPSIGPTRKIYDQNFSLVRNVNDLINGGKYLCTSGDPPAPIRNLSLHFLT | failed
19 | THSETITIPVFDTQVAGTLLTPRAKLPGVLFVHGWGGSQRFDLSRARDIAGLGCICLTFDLRGHAATEAQRRQVTREDSLRDIMAAYDALIAHPAVDTSAIAVVGSSYGGYLAAILTTLRAVRWLALHVPALYRDDEWAQPKLQLDRAAISAYRHATVAPEGNRALSACSSFRGDVLIVEAEHDDYIPHSTIMSYRGAFLHSHSLTHRIVDGADHALSDKRCQQAYSSILLNWATEMV | failed
20 | MSDIKKLGSSWIINWFFGFNQIPTNEDSSIYMKSVLTCAKADGVISPEEKDWALGFCASWGVADWVIEDLKTYEADEALEEVIARSPQVSMAQRDILLSAIWVSAADGELHEKEKAKIRKMATILGIKEEIVDQLEQLYYYEAALRQKRLNLLYPQKSPY | not failed
